B1: Cold shock protein CspB, P41016 (parent)
chain: MQRGKVKWFNNEKGYGFIEVEGGSDVFVHFTAIQGEGFKTLEEGQEVSFEIVQGNRGPQAANVVKL

Variants of: B1
Conditions: Bacillus caldolyticus, pH 7, Thermal, Na cacodylate/HCl 0.1 M, reversible: Yes, structure 1C9O, whole UniProt chain shown

Variant | ddG of mutation (higher = less stable) (75 °C, CD, NaCl 0-2 M) | heat capacity change of unfolding (75 °C, CD, NaCl 0-2 M) | ddG of mutation (higher = less stable) (75 °C, CD, NaCl 2 M) | heat capacity change of unfolding (75 °C, CD, NaCl 2 M) | ddG of mutation (higher = less stable) (75 °C, CD) | heat capacity change of unfolding (75 °C, CD) | Tm (CD) | change of melting temperature, mutant - wild type (higher = more stable) (CD) | heat capacity change of unfolding (CD) | unfolding enthalpy (van 't Hoff) (CD) | ddG of mutation (higher = less stable) (75 °C, DSC, NaCl 0-2 M) | heat capacity change of unfolding (75 °C, DSC, NaCl 0-2 M) | ddG of mutation (higher = less stable) (75 °C, DSC, NaCl 2 M) | heat capacity change of unfolding (75 °C, DSC, NaCl 2 M) | ddG of mutation (higher = less stable) (75 °C, DSC) | heat capacity change of unfolding (75 °C, DSC) | Tm (DSC) | change of melting temperature, mutant - wild type (higher = more stable) (DSC) | heat capacity change of unfolding (DSC) | unfolding enthalpy (calorimetric) (DSC)
E21K | 0.43 kcal/mol | 0.96 kcal/mol/K | -0.17 kcal/mol | 0.96 kcal/mol/K | 0.26 kcal/mol | 0.96 kcal/mol/K | 75.4 °C | -1.5 °C | 0.96 kcal/mol/K | 49 kcal/mol |  |  |  |  |  |  |  |  |  | 
E36K | 0.98 kcal/mol | 0.96 kcal/mol/K | -0.79 kcal/mol | 0.96 kcal/mol/K | 0.19 kcal/mol | 0.96 kcal/mol/K | 76 °C | -0.9 °C | 0.96 kcal/mol/K | 45.6 kcal/mol |  |  |  |  |  |  |  |  |  | 
H29E |  |  |  |  |  |  |  |  |  |  | 0.29 kcal/mol | 0.96 kcal/mol/K | 0.48 kcal/mol | 0.96 kcal/mol/K | 0.76 kcal/mol | 0.96 kcal/mol/K |  |  |  | 
R56E | -0.53 kcal/mol | 0.96 kcal/mol/K | -0.24 kcal/mol | 0.96 kcal/mol/K | -0.76 kcal/mol | 0.96 kcal/mol/K |  |  |  |  |  |  |  |  |  |  |  |  |  | 
E46K |  |  |  |  |  |  |  |  |  |  | 0.43 kcal/mol | 0.96 kcal/mol/K | 0.22 kcal/mol | 0.96 kcal/mol/K | 0.65 kcal/mol | 0.96 kcal/mol/K | 74 °C | -2.9 °C | 0.96 kcal/mol/K | 114 kcal/mol
E12K | 0.1 kcal/mol | 0.96 kcal/mol/K | 0.29 kcal/mol | 0.96 kcal/mol/K | 0.43 kcal/mol | 0.96 kcal/mol/K |  |  |  |  |  |  |  |  |  |  |  |  |  | 
E50K | 0.76 kcal/mol | 0.96 kcal/mol/K | -0.26 kcal/mol | 0.96 kcal/mol/K | 0.5 kcal/mol | 0.96 kcal/mol/K | 73.5 °C | -3.4 °C | 0.96 kcal/mol/K | 43.3 kcal/mol |  |  |  |  |  |  |  |  |  | 
N55K | 0.29 kcal/mol | 0.96 kcal/mol/K | -0.19 kcal/mol | 0.96 kcal/mol/K | -0.1 kcal/mol | 0.96 kcal/mol/K | 77.7 °C | 0.8 °C | 0.96 kcal/mol/K | 55.2 kcal/mol |  |  |  |  |  |  |  |  |  | 

— FireProtDB (doi:10.1093/protein/gzl019)
